Consider ten variants from FireProtDB (doi:10.1111/j.1432-1033.1994.tb18664.x).

To fix the notation:
B1: Ribonuclease HI, P0A7Y4 (parent)
chain: MLKQVEIFTDGSCLGNPGPGGYGAILRYRGREKTFSAGYTRTTNNRMELMAAIVALEALKEHCEVILSTDSQYVRQGITQWIHNWKKRGWKTADKKPVKNVDLWQRLDAALGQHQIKWEWVKGHAGHPENERCDELARAAAMNPTLEDTGYQVEV

The data set covers variants of B1. Particulars: Escherichia coli (strain K12), Thermal, CD, NaCl 0.1 M, reversible: yes, structure 2RN2, whole UniProt chain shown.
The mark [1] stands for this setting: pH 5.5, 53.1 °C, Sodium acetate 20 mM.

The term Tm denotes the temperature at the midpoint of the melting transition. Regarding D134V, the “ddG of mutation (higher = less stable)” value is -0.31 kcal/mol (pH 3, 50 °C, glycine-HCl 10 mM) and -1.12 kcal/mol under setting [1]. In addition, the Tm is, setting by setting: (pH 3, glycine-HCl 10 mM) 51.1 °C; (pH 5.5, Sodium acetate 20 mM) 57.2 °C. The “change of melting temperature, mutant - wild type (higher = more stable)” value (from here on “change of melting temperature, mutant”) worked out at 1.1 °C (pH 3, glycine-HCl 10 mM) and 4.1 °C (pH 5.5, Sodium acetate 20 mM). Further, the “unfolding enthalpy (van 't Hoff)” value by setting is: (pH 3, glycine-HCl 10 mM) 107 kcal/mol; (pH 5.5, Sodium acetate 20 mM) 99 kcal/mol.

For the variant D134T, where the note is “pH 3, 50 °C, glycine-HCl 10 mM”, the “ddG of mutation (higher = less stable)” value is -0.12 kcal/mol. Under “pH 3, glycine-HCl 10 mM”, the Tm is 50.4 °C; the “change of melting temperature, mutant” value came out at 0.4 °C; the “unfolding enthalpy (van 't Hoff)” value stood at 107 kcal/mol. In addition, under “pH 5.5, Sodium acetate 20 mM”, the Tm worked out at 57 °C; the “change of melting temperature, mutant” value was 3.9 °C; the “unfolding enthalpy (van 't Hoff)” value worked out at 90.2 kcal/mol.

As for D134E, the “ddG of mutation (higher = less stable)” value (pH 3, 50 °C, glycine-HCl 10 mM) was -0.72 kcal/mol. In addition, where the note is “pH 3, glycine-HCl 10 mM”, the Tm worked out at 52.4 °C; the “change of melting temperature, mutant” value stood at 2.4 °C; the “unfolding enthalpy (van 't Hoff)” value was 108 kcal/mol. Further, the “ddG of mutation (higher = less stable)” value under setting [1] is -0.86 kcal/mol. Also, where the note is “pH 5.5, Sodium acetate 20 mM”, the Tm was 56.2 °C; the “change of melting temperature, mutant” value was found to be 3.1 °C; the “unfolding enthalpy (van 't Hoff)” value amounted to 102 kcal/mol.

Consider D134Q, for which, for the setting “pH 3, 50 °C, glycine-HCl 10 mM”, the “ddG of mutation (higher = less stable)” value was -0.48 kcal/mol. Further, under “pH 3, glycine-HCl 10 mM”, the midpoint of thermal melting (Tm) was determined as 51.6 °C; the “change of melting temperature, mutant” value was 1.6 °C; the “unfolding enthalpy (van 't Hoff)” value came out at 114 kcal/mol. Under setting [1], the “ddG of mutation (higher = less stable)” value is -1.32 kcal/mol. In addition, under “pH 5.5, Sodium acetate 20 mM”, the Tm is 57.9 °C; the “change of melting temperature, mutant” value came out at 4.8 °C; the “unfolding enthalpy (van 't Hoff)” value was found to be 96.9 kcal/mol.

For D134I, the “ddG of mutation (higher = less stable)” value (pH 3, 50 °C, glycine-HCl 10 mM) is -0.69 kcal/mol. For the same variant, where the note is “pH 3, glycine-HCl 10 mM”, the Tm is 52.3 °C; the “change of melting temperature, mutant” value is 2.3 °C; the “unfolding enthalpy (van 't Hoff)” value is 105 kcal/mol. For the same variant, the “ddG of mutation (higher = less stable)” value under setting [1] was -1.27 kcal/mol. Besides, for the setting “pH 5.5, Sodium acetate 20 mM”, the melting temperature (Tm) is 57.7 °C; the “change of melting temperature, mutant” value is 4.6 °C; the “unfolding enthalpy (van 't Hoff)” value is 101 kcal/mol.

Take D134S: where the note is “pH 3, 50 °C, glycine-HCl 10 mM”, the “ddG of mutation (higher = less stable)” value is -0.26 kcal/mol. For the same variant, under “pH 3, glycine-HCl 10 mM”, the melting temperature (Tm) was 50.9 °C; the “change of melting temperature, mutant” value was determined as 0.9 °C; the “unfolding enthalpy (van 't Hoff)” value amounted to 106 kcal/mol. Also, under setting [1], the “ddG of mutation (higher = less stable)” value was -1.08 kcal/mol.

Turning to D134A, the “ddG of mutation (higher = less stable)” value (pH 3, 50 °C, glycine-HCl 10 mM) is -0.89 kcal/mol. Moreover, under setting [1], the “ddG of mutation (higher = less stable)” value is -1.51 kcal/mol. Besides, under “pH 5.5, Sodium acetate 20 mM”, the midpoint of thermal melting (Tm) stood at 58.6 °C; the “change of melting temperature, mutant” value was 5.5 °C; the “unfolding enthalpy (van 't Hoff)” value amounted to 118 kcal/mol.

On to D134H, for which the “ddG of mutation (higher = less stable)” value (pH 3, 50 °C, glycine-HCl 10 mM) was -0.53 kcal/mol. Besides, where the note is “pH 3, glycine-HCl 10 mM”, the midpoint of thermal melting (Tm) amounted to 51.7 °C; the “change of melting temperature, mutant” value came out at 1.7 °C; the “unfolding enthalpy (van 't Hoff)” value was 106 kcal/mol. Moreover, under setting [1], the “ddG of mutation (higher = less stable)” value was -1.94 kcal/mol.

In the case of D134N, the “ddG of mutation (higher = less stable)” value (pH 3, 50 °C, glycine-HCl 10 mM) was 0.1 kcal/mol. For the same variant, under “pH 3, glycine-HCl 10 mM”, the Tm stood at 49.7 °C; the “change of melting temperature, mutant” value is -0.3 °C; the “unfolding enthalpy (van 't Hoff)” value is 110 kcal/mol. For the same variant, under “pH 5.5, Sodium acetate 20 mM”, the Tm was 56.3 °C; the “change of melting temperature, mutant” value came to 3.2 °C; the “unfolding enthalpy (van 't Hoff)” value amounted to 96.9 kcal/mol.

As to D134L, the “ddG of mutation (higher = less stable)” value is -1.15 kcal/mol (pH 3, 50 °C, glycine-HCl 10 mM) and -1.51 kcal/mol under setting [1]. Also, the Tm (pH 3, glycine-HCl 10 mM) stood at 53.8 °C and the Tm (pH 5.5, Sodium acetate 20 mM) amounted to 58.6 °C. The “change of melting temperature, mutant” value (pH 3, glycine-HCl 10 mM) came to 3.8 °C and the “change of melting temperature, mutant” value (pH 5.5, Sodium acetate 20 mM) was found to be 5.5 °C. In addition, the “unfolding enthalpy (van 't Hoff)” value came out at 118 kcal/mol (pH 3, glycine-HCl 10 mM) and 96.4 kcal/mol (pH 5.5, Sodium acetate 20 mM).
